# Laboratory results published in publication PMC2854584.
# What was measured:
# [1] = target: HIV-1YU2 gp41 transmembrane envelope glycoprotein (HIV-1 YU2) (UniProt P35961); test: gp120-gp41 association index
# CD4-Ig = test: pull-down
# soluble CD4 = soluble CD4 (UniProt P01730); test: SPR
# CCR5 = CCR5 (UniProt P51681); test: radioligand binding
Substance,association index (relative to wild type) [1],CD4-Ig binding (relative to wild type) (CD4-Ig),also measured
HIV-1YU2 gp120 F210A (natural protein),1.33,–,–
HIV-1YU2 gp120 I109A (natural protein),–,0.49,–
HIV-1YU2 gp120 D78A (natural protein),–,1.13,–
HIV-1YU2 gp120 W69L (natural protein),0.89,0.64,Kd (soluble CD4): 54.2 nM; koff (soluble CD4): 0.000526 s⁻¹; kon (soluble CD4): 9690 M⁻¹ s⁻¹; fold reduction of CCR5 binding against wt gp120 (CCR5): 2 fold
HIV-1YU2 gp120 A60G (natural protein),–,1.46,–
HIV-1YU2 gp120 L111A (natural protein),0.28,–,Kd (soluble CD4): 32.3 nM; koff (soluble CD4): 0.000426 s⁻¹; kon (soluble CD4): 13200 M⁻¹ s⁻¹; fold reduction of CCR5 binding against wt gp120 (CCR5): 2 fold
HIV-1YU2 gp120 T63A (natural protein),–,1.79,–
HIV-1YU2 gp120 F53A (natural protein),0.25,0.29,–
HIV-1YU2 gp120 H66A/S375W (natural protein),–,–,Kd (soluble CD4): 7.67 nM; koff (soluble CD4): 5.02e-06 s⁻¹; kon (soluble CD4): 655 M⁻¹ s⁻¹
HIV-1YU2 gp120 P76A (natural protein),0.64,1.02,–
HIV-1YU2 gp120 T71A (natural protein),–,0.85,–
HIV-1YU2 gp120 S110W (natural protein),0.49,–,–
HIV-1YU2 gp120 W112A (natural protein),–,0.25,–
HIV-1YU2 gp120 Q82A (natural protein),1.03,1.12,–
HIV-1YU2 gp120 L111A/S375W (natural protein),–,1.32,Kd (soluble CD4): 1.12 nM; koff (soluble CD4): 1.92e-05 s⁻¹; kon (soluble CD4): 17100 M⁻¹ s⁻¹
HIV-1YU2 gp120 I108A (natural protein),–,1.48,–
HIV-1YU2 gp120 V89A (natural protein),–,0.97,–
HIV-1YU2 gp120 S110N (natural protein),0.66,–,–
HIV-1YU2 gp120 D107A (natural protein),–,0.66,Kd (soluble CD4): 74.3 nM; koff (soluble CD4): 0.00142 s⁻¹; kon (soluble CD4): 19100 M⁻¹ s⁻¹; fold reduction of CCR5 binding against wt gp120 (CCR5): 2 fold
HIV-1YU2 gp120 A221G (natural protein),–,0.76,–
HIV-1YU2 gp120 L111W (natural protein),–,–,Kd (soluble CD4): 621 nM; kon (soluble CD4): 2090 M⁻¹ s⁻¹
HIV-1YU2 gp120 T51A (natural protein),1.06,1.02,–
HIV-1YU2 gp120 T49A (natural protein),1.07,1.14,–
"HIV-1YU2 gp120 exterior envelope glycoprotein, wild-type (from UniProt P35961 32-498) (natural protein)",–,1,–
HIV-1YU2 gp120 Q103A (natural protein),1.07,1.15,–
HIV-1YU2 gp120 S115A (natural protein),1.12,1.36,–
HIV-1YU2 gp120 F223A (natural protein),–,0.85,–

Substance,association index (relative to wild type) [1],CD4-Ig binding (relative to wild type) (CD4-Ig),also measured
HIV-1YU2 gp120 W69L/S375W (natural protein),0.81,1.11,Kd (soluble CD4): 0.846 nM; koff (soluble CD4): 9.98e-06 s⁻¹; kon (soluble CD4): 11800 M⁻¹ s⁻¹
HIV-1YU2 gp120 L52A (natural protein),0.25,0.23,–
HIV-1YU2 gp120 Q103R (natural protein),–,0.74,–
HIV-1YU2 gp120 V68A (natural protein),–,1.12,–
HIV-1YU2 gp120 E47A (natural protein),0.64,–,–
HIV-1YU2 gp120 Q114N (natural protein),0.74,1.09,–
HIV-1YU2 gp120 N99A (natural protein),0.7,0.97,–
HIV-1YU2 gp120 T77A (natural protein),–,1.52,–
HIV-1YU2 gp120 P79A (natural protein),0.64,1.29,–
HIV-1YU2 gp120 A73S (natural protein),–,1.19,–
HIV-1YU2 gp120 L111F (natural protein),–,–,Kd (soluble CD4): 13.3 nM; koff (soluble CD4): 0.000204 s⁻¹; kon (soluble CD4): 15300 M⁻¹ s⁻¹
HIV-1YU2 gp120 H66A (natural protein),–,–,Kd (soluble CD4): 172 nM; koff (soluble CD4): 0.000569 s⁻¹; kon (soluble CD4): 3320 M⁻¹ s⁻¹
HIV-1YU2 gp120 D107A/S375W (natural protein),0.61,0.76,–
HIV-1YU2 gp120 D107Q (natural protein),–,0.69,–
HIV-1YU2 gp120 W96A (natural protein),0.65,0.66,–
HIV-1YU2 gp120 M104A (natural protein),–,1.25,–
HIV-1YU2 gp120 W437R (natural protein),0.64,–,–
HIV-1YU2 gp120 E91A (natural protein),–,1.45,–
HIV-1YU2 gp120 Y61A (natural protein),0.89,1.33,–
HIV-1YU2 gp120 D57A (natural protein),0.62,0.91,–
HIV-1YU2 gp120 L116A (natural protein),–,0.67,–
HIV-1YU2 gp120 W69L/L111W (natural protein),0.28,–,Kd (soluble CD4): 871 nM; koff (soluble CD4): 0.000483 s⁻¹; kon (soluble CD4): 554 M⁻¹ s⁻¹
HIV-1YU2 gp120 D113A (natural protein),–,1.79,–
HIV-1YU2 gp120 P212A (natural protein),–,0.65,–
HIV-1YU2 gp120 H72A (natural protein),–,1.11,–
HIV-1YU2 gp120 S375W (natural protein),–,1.12,Kd (soluble CD4): 0.0469 nM; koff (soluble CD4): 6.49e-07 s⁻¹; kon (soluble CD4): 13800 M⁻¹ s⁻¹
HIV-1YU2 gp120 N80A (natural protein),0.65,1.24,–
